Assay: yeast display, Sf9 membrane polyspecificity reagent, FACS + sequencing; frameworks hold sequencing errors
Outline: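 A nanobody's polyreactivity label depends on the gate it was sorted from. Yeast display cells were stained with 10% biotinylated, detergent-solubilized Sf9 membrane reagent for 1 hour at 4 °C, enriched on streptavidin microbeads and sorted by FACS. The low and high (top ~1%) gates were set on anti-HA fluorescence for expression and streptavidin fluorescence for reagent binding.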

Sequence	polyreactivity (PSR sort gate)
QVQLVESGGGLVQAGGSLRLSCAASGFTFGRYAMGWYRQAPGKERELVAAISRGGSSTYYADSVKGRFTISRDNAKNTVYLQMNSLKPEDNAVYYCNKVIIWARFDYWGQGTQVTVSS	high polyreactivity
QVQLVESGGGIFQAGGSLRLSCSASGNTLVIYAMGWYRQAPVKESELVAAISRAGGTTYYADSVKGRFTISRDKAKNTVYLQMNSLKPEDTEVFYCNAGDHMRKRYGISATWGYGYGYWGQGSQVTVSS	high polyreactivity
QVQLVESGGGLVQAGGSLRLSCAASGRIFVYNAMGWYRQAPGKERELVAGITASGGSTYYADSGKGRFTISRDNAKNTVYLQMNSLKPEDTAVYYCAATRYKRRYYYWGQGTQVTVSS	high polyreactivity
QVQLVESGGGLVQAGGSLRLSSAASGSTFVWYAMGWYRQAPGKERELVASISGSGGRTYYADSVKGRFTISRDNAKNTVYLQMNSLKPEDTAVYYCAAYYRKTGYDYWGQGTQVTVSS	high polyreactivity
QVQLVESGGGLVQAGGSLRLSCAASGSTFGDNAMGWYRQAPGKERELVARISSGGNTYYADSVKGRFTISRDNAKNTVYLQMNSLKPEFTAVYYCAADIIVRYKKFPYYYWGQGTQVNVSS	high polyreactivity
QVQLVETGGGLVQAGGSLRLSCAASGRTYRFNAMGWYRQAPGKERELVASINSGVRTYYADSVKGRFTISRDNAKNTVYLQMNSLKPEDSAVYYCAARYRVRYYERDYWGQGTQVTVSS	high polyreactivity
QVQLVESGGGLDQAGGSLRLSCAASGYTFPYYTMGWYRQAPGKESELVATITRRGDSTYYADSVKGRFTISRDNAKNTVYLQMNSLKPEDTAVYYCNTASYGRHHFRKSSKMDYWGQGTQVTVSS	high polyreactivity
QVQLVESVGGLVQAGGSLRLSCAASGGMGWYRQAPGKERELVATISSVGSTNYADSVKGRFTISRDNAKNTVYLQMNSLKPEDTAVYYCNATGVQYFLYGYWGQGTQVTVSS	low polyreactivity
QVQLVESGGGLVQAGGSLRISCAASGRTFSNYAMGWYRQAPGKERELVAAISGSGGSTRYADSVKGRFTISRDNANITVYLQMNSLKPEDTAVYYCAARGAGPLHNHYSWGQGTQVTVSS	high polyreactivity
QVQLVESGGGLVQAGCSLRLSCAASGRNFVHYAMGWYRQAPGKERDLVAAISWSGGNTYYADSVKGRFTISRDNAKNTVYLQMNSLKPEDTAVYYCARAPYYVASGHRRVLRPTYEYWGQGTQVTVSS	low polyreactivity
QVQLVESGGGLVQAGGSLRLSCAASGTYTNAMGWYRQAPGKERELVAAITSSGGSTYYADSVKGRFTISRDNAKNTVYLQMNSLKPEDTAVYYCAKPGVYEVSYTYGYWGQGTQVTVSS	low polyreactivity
QVQLVESGGGLVQAGGSLRLSCAASGFTFYGYAMGWYRQAPGKERELVAGITSSGGSTHYADSVKGRFTISRDNAKNTVYLQMNSLKPEDTAVYYCAKVWSFPSNYRAYYYWGQGTQVTVSS	high polyreactivity
QVQLVESGGGLVQAGGSLRLSCAASGSIFDVYAMGWYRQAPGKERELVAAINGGGSTYYADSVKGRFTISRDNAKNTVYLQMNSLKPEDTAVYYCAADRYYYAYRYYPSGYWGQGTQVTVSS	low polyreactivity
QVQLVESGGGLVQAGGSLRLSCAASGYTFSQNAMGWYRPAPGKERELVAGITTRGTTTYYADSVKGRFTISRDNAKNTVYLQMNSLKPEDTAVYYCAADNSYTDNYWGQGTQVTVSS	low polyreactivity
QVQLVESGGGLVQAGGSLRLSCAASGIIFHKYSMGWYRQAPGKERELVAVITWRGGTTYYADSVKGRFTISRDNAKNTVYLQMNSLKPEDTAVYYCAAKDRSPRVRYQYEYWGQGTQVTVSS	high polyreactivity
QVQLVESGGGLVQAGGSLRLSCAASGFTISDNAMGWYRQAPGKERELVAAITSGTSTYYADSVKGRFTISRDNAKNTVYLQMNSLKPEDTAVYYCAARTYYSGYLWARGYWGQGTQVTVSS	high polyreactivity
QVQLVESGGGIVHAGGSLGLSCAASGRIFYSNAMGWYRQAPGKERELVAAISWNGGRTYYADSVKGRFTISRDNAKNTVYLQMKSLKPEDHAVYYCAVRYARQYYYRSGAYASRYLYNYWGQGTQVTVSS	high polyreactivity
